The target in data set [1] is Bosea sp. Root381 GapR, wild type (Bosea sp. Root381). Nature of the data set: crystal structure.
In data set [2] the target is Bosea sp. Root381 GapR(L48M-I54M-L73M), selenomethionine substituted (Bosea sp. Root381). Put plainly: crystal structure.
For a further data set, the target named is T1, GapR(11-89) WT (Caulobacter crescentus, UniProt B8H4R9 11-89).
T1 sequence: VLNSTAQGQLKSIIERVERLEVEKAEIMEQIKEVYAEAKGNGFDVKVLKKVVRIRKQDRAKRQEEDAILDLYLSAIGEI
Put plainly: X-ray crystallography.

For the next data set, the target named is T2, GapR(11-89) L83M SeMet (Caulobacter crescentus, UniProt B8H4R9 11-89, L83M).
T2 sequence: T1 sequence with L73M
Put plainly: X-ray crystallography.

The data set “SEC-MALS” deals with the molecule itself. Nature of the data set: SEC-MALS.
The data set “crystal structure” deals with the molecule itself. Nature of the data set: crystal structure.

Positions count from the first letter of the chain named. Names and notes keep the numbering of the source.

What is called stoichiometry N is the number of molecules, sites or subunits per partner or assembly.

In data set [1], “Bosea sp. Root381 GapR, wild type (natural protein)” yielded a stoichiometry N of 4.

With “Bosea sp. Root381 GapR(L48M-I54M-L73M), selenomethionine substituted (natural protein)”, the stoichiometry N in data set [2] came out at 2.

B1: AT-rich crystallization 11-mer (dsDNA)
DNA 1: TTAAAATTAAA
DNA 2: TTTAATTTTAA
Take B1: the binding result with GapR(11-89) WT and with GapR(11-89) L83M SeMet was “binds” in each case.

B2: Caulobacter crescentus GapR, untagged (natural protein, UniProt B8H4R9 1-89, looked up)
chain: MADDAIPHTDVLNSTAQGQLKSIIERVERLEVEKAEIMEQIKEVYAEAKGNGFDVKVLKKVVRIRKQDRAKRQEEDAILDLYLSAIGEI
As for B2, the “stoichiometry N” value in the data set “SEC-MALS” worked out at 2.

B3: C. crescentus GapR(11-89) L83M, selenomethionine substituted (domain or fragment, Caulobacter crescentus, UniProt B8H4R9 11-89, looked up)
chain: T1 sequence with L73M
modifications: selenomethionine substituted
For the molecule B3, the “stoichiometry N” value in “crystal structure” turned out to be 4.
